Laboratory results: patent publication US6787341B2, “Pharmacological targeting of bacterial DNA ligase for treatment and prevention of bacterial infections” (priority 2001, dated 2004)
Changes are numbered by the printed parent chain. Names and notes keep the numbering of the source.

B1: NΔ78: N-terminal deletion of E. coli DNA ligase LigA eliminating domain Ia (protein, UniProt P15042 79-671, looked up, fragment)
chain: MLSLDNVFDEESFLAFNKRVQDRLKNNEKVTWCCELKLDGLAVSILYENGVLVSAATRGDGTTGEDITSNVRTIRAIPLKLHGENIPARLEVRGEVFLPQAGFEKINEDARRTGGKVFANPRNAAAGSLRQLDPRITAKRPLTFFCYGVGVLEGGELPDTHLGRLLQFKKWGLPVSDRVTLCESAEEVLAFYHKVEEDRPTLGFDIDGVVIKVNSLAQQEQLGFVARAPRWAVAFKFPAQEQMTFVRDVEFQVGRTGAITPVARLEPVHVAGVLVSNATLHNADEIERLGLRIGDKVVIRRAGDVIPQVVNVVLSERPEDTREVVFPTHCPVCGSDVERVEGEAVARCTGGLICGAQRKESLKHFVSRRAMDVDGMGDKIIDQLVEKEYVHTPADLFKLTAGKLTGLERMGPKSAQNVVNALEKAKETTFARFLYALGIREVGEATAAGLAAYFGTLEALEAASIEELQKVPDVGIVVASHVHNFFAEESNRNVISELLAEGVHWPAPIVINAEEIDSPFAGKTVVLTGSLSQMSRDDAKARLVELGAKVAGSVSKKTDLVIAGEAAGSKLAKAQELGIEVIDEAEMLRLLGS
B2: Y35A: E. coli LigA with Tyr35 replaced by alanine (protein, UniProt P15042 1-671, looked up, variant Y35A)
DNA ligase: MESIEQQLTELRTTLRHHEYLYHVMDAPEIPDAEADRLMRELRELETKHPELITPDSPTQRVGAAPLAAFSQIRHEVPMLSLDNVFDEESFLAFNKRVQDRLKNNEKVTWCCELKLDGLAVSILYENGVLVSAATRGDGTTGEDITSNVRTIRAIPLKLHGENIPARLEVRGEVFLPQAGFEKINEDARRTGGKVFANPRNAAAGSLRQLDPRITAKRPLTFFCYGVGVLEGGELPDTHLGRLLQFKKWGLPVSDRVTLCESAEEVLAFYHKVEEDRPTLGFDIDGVVIKVNSLAQQEQLGFVARAPRWAVAFKFPAQEQMTFVRDVEFQVGRTGAITPVARLEPVHVAGVLVSNATLHNADEIERLGLRIGDKVVIRRAGDVIPQVVNVVLSERPEDTREVVFPTHCPVCGSDVERVEGEAVARCTGGLICGAQRKESLKHFVSRRAMDVDGMGDKIIDQLVEKEYVHTPADLFKLTAGKLTGLERMGPKSAQNVVNALEKAKETTFARFLYALGIREVGEATAAGLAAYFGTLEALEAASIEELQKVPDVGIVVASHVHNFFAEESNRNVISELLAEGVHWPAPIVINAEEIDSPFAGKTVVLTGSLSQMSRDDAKARLVELGAKVAGSVSKKTDLVIAGEAAGSKLAKAQELGIEVIDEAEMLRLLGS
B3: D36A: E. coli LigA with Asp36 replaced by alanine (protein, UniProt P15042 1-671, looked up, variant D36A)
DNA ligase: B2 DNA ligase with A35Y, D36A
B4: NΔ38: N-terminal deletion of E. coli DNA ligase LigA eliminating part of domain Ia (protein, UniProt P15042 39-671, looked up, fragment)
chain: MRELRELETKHPELITPDSPTQRVGAAPLAAFSQIRHEVPMLSLDNVFDEESFLAFNKRVQDRLKNNEKVTWCCELKLDGLAVSILYENGVLVSAATRGDGTTGEDITSNVRTIRAIPLKLHGENIPARLEVRGEVFLPQAGFEKINEDARRTGGKVFANPRNAAAGSLRQLDPRITAKRPLTFFCYGVGVLEGGELPDTHLGRLLQFKKWGLPVSDRVTLCESAEEVLAFYHKVEEDRPTLGFDIDGVVIKVNSLAQQEQLGFVARAPRWAVAFKFPAQEQMTFVRDVEFQVGRTGAITPVARLEPVHVAGVLVSNATLHNADEIERLGLRIGDKVVIRRAGDVIPQVVNVVLSERPEDTREVVFPTHCPVCGSDVERVEGEAVARCTGGLICGAQRKESLKHFVSRRAMDVDGMGDKIIDQLVEKEYVHTPADLFKLTAGKLTGLERMGPKSAQNVVNALEKAKETTFARFLYALGIREVGEATAAGLAAYFGTLEALEAASIEELQKVPDVGIVVASHVHNFFAEESNRNVISELLAEGVHWPAPIVINAEEIDSPFAGKTVVLTGSLSQMSRDDAKARLVELGAKVAGSVSKKTDLVIAGEAAGSKLAKAQELGIEVIDEAEMLRLLGS

Assays:
[1] = target: E. coli LigA (Escherichia coli, UniProt P15042); format: biochemical
Procedure: (§1) Reaction mixtures containing 1 pmol of ^32P-labeled nicked DNA-adenylate (AppDNA) and either 8 pmol of wild-type (WT) E. coli ligase, deletion mutants NΔ38 and NΔ78, or the full-length ligase proteins containing the indicated alanine mutations in domain Ia were incubated for 60 min at 22° C. The reaction products were resolved by denaturing PAGE. An autoradiograph of the gel is shown. Control reaction mixtures containing either ^32P-labeled nicked DNA-adenylate (AppDNA) or nicked DNA (pDNA) substrates and no ligase are shown in lanes -. The positions of the pDNA, AppDNA, and ligated 36-mer DNA strands are indicated by arrows on the right. The position of the radiolabeled phosphate of AppDNA is denoted by •. The nicked DNA-adenylate substrate used in the ligation reactions is illustrated at the bottom.
(§2) The nicked DNA-adenylate substrate is illustrated in FIG. 13. The DNA-adenylate ligation reaction mixtures (20 μl) contained 50 mM Tris-HCl (pH 7.5), 5 mM DTT, 5 mM MgCl2, 200 fmol of nicked DNA-adenylate substrate, 2 pmol of wild-type or mutant EcoLigA proteins as specified were incubated at 22° C. The sealing reactions were initiated by adding ligase. Aliquots (20 μl) were withdrawn at the times specified and quenched immediately with EDTA and formamide. The products were resolved by denaturing PAGE and the extents of ligation were determined by scanning the gel with a phosphorimager. The extent of strand joining is plotted as a function of reaction time.
(§3) The third step of the ligation pathway entails attack of the 3′ OH of the nick on the 5′ PO4 of the DNA-adenylate to form a phosphodiester and release AMP. Step 3 of the ligation reaction was assayed using a pre-adenylated nicked DNA substrate labeled with ^32P on the 5′ PO4 of the DNA-adenylate strand (FIG. 13).

[2] = test system: E. coli LigA; format: biochemical; details: for phosphodiester formation at pre-adenylated nick: qualitative, magnesium, no added NAD+
Procedure: as §1, §2, §3

[3] = test system: E. coli LigA; details: reference 19; cited from earlier work
[4] = test system: E. coli LigA; format: biochemical; details: qualitative
Procedure: (§4) FIG. 12A: Aliquots (5 μg) of wild-type (WT) E. coli ligase, N-terminal deletion mutants NΔ38 and NΔ78, and the full-length ligase proteins containing the indicated alanine mutations in domain Ia were analyzed by SDS-PAGE. A Coomassie blue-stained gel is shown. FIG. 12B: Ligase adenylation reaction mixtures (20 μl) containing 50 mM Tris-HCl (pH 7.5), 5 mM DTT, 5 mM MgCl2, 1 μM [α-^32P]NAD^+ and 8 pmol of WT ligase, NΔ38, NΔ78, or the indicated alanine mutants were incubated for 5 min at 37° C. The reaction products were resolved by SDS-PAGE and visualized by autoradiography. FIG. 12C: Nick joining reaction mixtures (20 μl) containing 50 mM Tris-HCl (pH 7.5), 10 mM (NH4)2SO4, 5 mM DTT, 5 mM MgCl2, 20 μM NAD^+, 1 pmol of ^32P-labeled nicked DNA, and increasing amounts of WT ligase or the indicated alanine mutants were incubated for 10 min at 22° C. The extents of ligation are plotted as a function of input protein.
FIG. 15A: Aliquots (5 μg) of wild-type (WT) E. coli ligase and proteins containing the indicated mutations in domain Ia were analyzed by SDS-PAGE. The Coomassie blue-stained gel is shown. The positions and sizes (in kDa) of marker proteins are indicated on the left. FIG. 15B: Ligase adenylation reaction mixtures (20 μl) containing 50 mM Tris-HCl (pH 7.5), 5 mM DTT, 5 mM MgCl2, 1 μM [α-^32P]NAD^+ and 8 pmol of WT ligase or the indicated mutants were incubated for 5 min at 37° C. The reaction products were resolved by SDS-PAGE and visualized by autoradiography.
Reaction mixtures containing (per 20 μl) 50 mM Tris-HCl (pH 7.5), 5 mM DTT, 5 mM MgCl2, 1 μM [^32P-AMP]NAD^+ and 8 pmol of ligase were incubated at 22° C. Aliquots (20 μl) were withdrawn at 15, 30, 60 and 120 s and then quenched immediately with SDS. The products were analyzed by SDS-PAGE. Formation of the ligase-[^32P]AMP adduct is plotted as a function of time.
The first step in DNA ligation involves formation of a covalent enzyme-adenylate intermediate.

[5] = test system: E. coli LigA; format: biochemical; details: for Nick Joining Activity (% of WT): specific activity by protein titration under steady-state conditions, normalized to wild-type ligase
Procedure: as §4
To further probe the role of domain Ia in NAD^+ recognition and nucleotidyl transfer, single alanine substitutions were introduced at six positions in the Ia domain of E. coli LigA. The six mutated Eco ligase residues—Glu10, Tyr22, His23, Asp32, Tyr35, and Asp36—correspond to the six residues that were subjected to alanine scanning mutagenesis in AmEPV ligase (FIG. 11). […] The conserved positions are denoted by shaded boxes in FIG. 11. The Eco ligase mutants E10A, Y22A, H23A, D32A, Y35A, and D36A were produced in E. coli and purified by Ni-agarose chromatography in parallel with wild-type ligase (FIG. 12A).
To evaluate the roles of charge, hydrogen bonding potential, and steric constraints in the functions of the domain Ia residues implicated in the step 1 reaction with NAD^+, the effects of conservative substitutions were tested. Tyr22 and Tyr35 were replaced by Phe and Ser, His23 was changed to Tyr, and Asp32 and Asp36 were mutated to Glu and Asn. The recombinant mutant ligases were purified from soluble bacterial extracts by Ni-agarose chromatography (FIG. 15A). The specific activity of each mutant was determined under steady-state conditions by protein titration and normalized to the specific activity of wild-type ligase.

Molecule	effect on the rate of approach to the endpoint of step 3 reaction [1] [fold]	phosphodiester formation at pre-adenylated nick [2]	nick joining activity (prior studies) [3]	ligase adenylation (ligase-AMP formation) with NAD+ [4]	Nick Joining Activity (% of WT) [5]	effect on rate or extent (yield) of phosphodiester formation at a pre-adenylated nick [2]	nick ligation (qualitative) [5]
B1	2	capable of forming a phosphodiester bond	complete loss	inert			
B2		catalytically active		less active	2 % of WT		
B3		catalytically active		virtually inert	0.2 % of WT	no effect	virtually inert
B4		capable of forming a phosphodiester bond	complete loss	inert		no effect	
